Assay [1] concerns the target T1, GST-tagged recombinant human MCL-1 (residues 172 to 327) (human, UniProt Q07820 172-327).
T1 construct: Produced in E. coli as an N-terminal GST fusion and purified using the GST-tag; also called recombinant MCL-1; GST-MCL-1; not shown: N-terminal GST tag and any linker or cleavage site between GST and MCL-1
Description: ELISA: Alphabody (500 nM) captured by immobilized anti-V5 antibody, five-fold dilutions of GST-MCL-1, detection with anti-GST-HRP, OD read at 492 nm and 630 nm. (An ELISA detects its analyte on a solid surface through an enzyme-linked reagent.)

Assay [2] concerns the target T2, GST-tagged recombinant human BCL-XL with a C terminal deletion of 24 amino acids (human, UniProt Q07817 1-209).
T2 construct: domain: BCL-XL with a C terminal deletion of 24 amino acids; Produced in E. coli as an N-terminal GST fusion; also called GST-BCL-XL; not shown: Glutathione S Transferase (GST) tag at the N-terminus
Put plainly: ELISA: Alphabody (500 nM) captured by immobilized anti-V5 antibody, five-fold dilutions of GST-BCL-XL, detection with anti-GST-HRP, OD read at 492 nm and 630 nm. As for the experimental part:
(§1) FIG. 13: Binding of recombinant BCL-2 family proteins to Alphabody AB1_pan_hiKR3-V5. Alphabody (500 nM) was captured by immobilized anti-V5 antibody (5 microg/ml) to a microtiterplate. Binding of five-fold dilutions of Glutathione S transferase (GST)-tagged recombinant BCL-2 family proteins MCL-1, BCL-XL and BCL-2a was detected using a anti-GST antibody conjugated to Horse Radish Peroxidase. Plates were read at 492 nm and 630 nm.
(§2) Maxisorp Nunc plates were coated with 100 microl anti-V5 antibody (5 microg/ml) in carbonate buffer pH 9.6 overnight at 4° C. The next day, plates were washed 3 times with Tris Buffered Saline containing 0.05% Tween 20 (TBST) and blocked with TBS containing 0.1% BSA and 0.5% gelatin for 2 h at 37° C. After washing plates 5 times with TBST, 500 nM AB1_pan_hiKR3-V5 Alphabody was added to the plates for 2 h at RT while shaking. Plates were washed 10 times with TBST and five-fold dilutions of Glutathione S transferase (GST) tagged recombinant BCL-2 family proteins (MCL-1, BCL-XL and BCL-2a) were added and further incubated for 2 h at RT while shaking. Binding of GST-tagged recombinant BCL-2 family proteins was detected using an anti-GST antibody conjugated to Horse Radish Peroxidase. […] Signals indicative for specific binding of AB1_pan_hiKR3-V5 to the particular BCL-2 family recombinant protein were read at 492 nm and 630 nm.

For assay [3], the target named is T1, GST-tagged recombinant human MCL-1 …. Description: ELISA: Alphabody (500 nM) captured by immobilized anti-V5 antibody, five-fold dilutions of GST-tagged recombinant protein, detection with anti-GST-HRP, OD read at 492 nm and 630 nm. Here is the method:
as §1, §2

Assay [4] addresses T2, GST-tagged recombinant human BCL-XL …. The assay is described as above. Here is the method:
as §1, §2

T1 sequence (Q07820 172-327 limits assumed): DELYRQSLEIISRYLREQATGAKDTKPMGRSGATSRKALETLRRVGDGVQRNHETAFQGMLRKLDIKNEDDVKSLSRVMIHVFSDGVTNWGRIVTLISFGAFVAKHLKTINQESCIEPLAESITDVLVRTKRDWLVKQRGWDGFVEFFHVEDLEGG
T2 sequence (Q07817 1-209, stated change not applied): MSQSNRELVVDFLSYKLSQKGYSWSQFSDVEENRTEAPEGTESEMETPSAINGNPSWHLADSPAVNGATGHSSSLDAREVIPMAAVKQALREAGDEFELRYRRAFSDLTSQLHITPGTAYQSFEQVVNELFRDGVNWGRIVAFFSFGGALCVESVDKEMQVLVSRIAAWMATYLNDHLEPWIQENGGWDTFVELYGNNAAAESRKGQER

B1: Alphabody AB1_A2aF_hiKR3-V5 (designed binder)
chain: MSIQQIQKQFKRIQKQIKRIEKQIKRMTGGSGGSGGMSIEEITKQIAAIQLRIVGDQVQIYAMTGGSGGGSGGGSGGGSGGSIEEIKKSIRAIQKEIKKIQKKIKKMTPHHHHHHHHHHGKPIPNPLLGLDST
Regarding B1, in assay [1], the EC50 (read off the curve) (usually the concentration at which the effect is half-maximal) was roughly 1 nM.

B2: Alphabody MB23_hiR-V5 (designed binder)
chain: MSIEQIQKEITTIQEVIAAIQKYIYTMTGGSGGSGGMSIQQIQAAIRRIQRAIRRIQRAIRRMTGSGGGGSGMSIEEIQKQIAAIQEQIVAIYKQIMAMASHHHHHHGKPIPNPLLGLDST
notes: Cationized Alphabody directed against IL-23, with His-tag and V5 tag; Used as control in the BCL-2 family ELISA; also called cationized MB23; control Alphabody MB23-hiR-V5
Turning to B2, the binding result in assay [1] is reported as “no binding (tested: 200 nM)”.

B3: Alphabody AB1_pan_hiKR3-V5 (designed binder)
chain: MSIEEIQKQFKRIQKQIKRIAKQIKRMTGGSGGSGGMSIEEIAAQIAAIQLRIIGDQFNIYYMTGSGGGGSGGSIEEIKKSIRAIQKEIKKIQKKIKKMTPHHHHHHHHHHGKPIPNPLLGLDST
notes: captured on the plate by anti-V5 antibody in the ELISA
For the molecule B3, the “EC50 (read off the curve)” value was roughly 2 nM in assay [1], roughly 5 nM in assay [2], roughly 2 nM in assay [3] and roughly 5 nM in assay [4].

The values are drawn from US20150266968A1 (COMPLIX, published 2015).
